Test results from the supplement of paper PMC12042874.
± gives the uncertainty stated by the source.

Assay: amyloid nucleation score (Sup35N fusion, yeast selection) (log enrichment); library NNK3; higher = more nucleation; inactive = no reads after selection
In short: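 On medium lacking adenine and uracil, psi-negative yeast expressing peptides of 20 random codons fused to Sup35N were grown 7 days at 30°C after a 24-hour induction with 100 μM copper sulfate. Illumina sequencing of input and output plasmid inserts gave the reads, and sequences under 100 input reads were excluded. The nucleation score is the DiMSum log enrichment of output over input reads, centred on the mode score of non-aggregating sequences.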

Substance: CHMCVVLAV
- amyloid nucleation score: inactive

Substance: CICKFTDLMHTGACLNILSR
- amyloid nucleation score: 1.58 ± 0.11

Substance: CIGIYFLIRGTYILIVFSL
- amyloid nucleation score: -0.607 ± 1

Substance: CIKIIIFNVERLVALIIVSL
- amyloid nucleation score: inactive

Substance: CILKHSGR
- amyloid nucleation score: inactive

Substance: CINIGVMDEWGVAVTLLVKN
- amyloid nucleation score: inactive

Substance: CIPIMRTPLGTPSN
- amyloid nucleation score: inactive

Substance: CIRLRKANINRKDQKRGCMV
- amyloid nucleation score: inactive

Substance: CIWHLHLLFLEGVYV
- amyloid nucleation score: inactive

Substance: CKAESLWFNGLF
- amyloid nucleation score: inactive

Substance: CKEHLHQLFMGRCSTV
- amyloid nucleation score: inactive

Substance: CKGLIFISSFANVVLN
- amyloid nucleation score: 1.52 ± 0.12

Substance: CKLNICRNVEETTIFRLGDV
- amyloid nucleation score: 1.39 ± 0.11

Substance: CKLRLWSEFSLVTSRSIYIA
- amyloid nucleation score: inactive

Substance: CKSNKCSAVMVLVA
- amyloid nucleation score: inactive

Substance: CKSSWDVVMSSVSDWFWDGA
- amyloid nucleation score: inactive

Substance: CLDHIAPKRKIQEVGLS
- amyloid nucleation score: inactive

Substance: CLFCSALEL
- amyloid nucleation score: 1.99 ± 0.072

Substance: CLIFVWATIDYNYFCLS
- amyloid nucleation score: 0.6 ± 0.16

Substance: CLILSWYKYCSRGEMMHMKH
- amyloid nucleation score: inactive

Substance: CLIVTLTHMS
- amyloid nucleation score: 1.64 ± 0.062

Substance: CLLRSSCGWMCLRTGTHCVV
- amyloid nucleation score: 0.729 ± 0.25

Substance: CLLTLMREVSCLLYFYHRAW
- amyloid nucleation score: 1.56 ± 0.091

Substance: CLMSVSAPFHVFALYIQLFC
- amyloid nucleation score: inactive

Substance: CLNGPFVCLKYYVCFIAMMF
- amyloid nucleation score: inactive

Substance: CLNNRSFNPKMQYPLVTMDH
- amyloid nucleation score: inactive

Substance: CLSSSINMTMVYCCNSLMFG
- amyloid nucleation score: 2.13 ± 0.069

Substance: CLSTPMVMLICFM
- amyloid nucleation score: 0.904 ± 0.29

Substance: CLYSSCALGIARDWVVLL
- amyloid nucleation score: inactive

Substance: CMGMCELFNTWCYEGKTPIS
- amyloid nucleation score: inactive

Substance: CMVSSVKLNFIYIGYGDSGW
- amyloid nucleation score: inactive

Substance: CMVSYASDTGGKESELACVV
- amyloid nucleation score: inactive

Substance: CMYSFGEL
- amyloid nucleation score: inactive

Substance: CNANGASAVKF
- amyloid nucleation score: inactive

Substance: CNFLGSRLGYFGNYIFI
- amyloid nucleation score: inactive

Substance: CNILIISTTLTPKITLTFYC
- amyloid nucleation score: 1.64 ± 0.13

Substance: CNISERENALETHTMNKFVV
- amyloid nucleation score: inactive

Substance: CNLDLVANT
- amyloid nucleation score: inactive

Substance: CNRWNHL
- amyloid nucleation score: inactive

Substance: CNSGWGTYVV
- amyloid nucleation score: inactive

Substance: CPCRHVFSRLSPF
- amyloid nucleation score: inactive

Substance: CPNVYIAIPIFS
- amyloid nucleation score: -0.423 ± 0.63

Substance: CPRGPWFFTTTAVTSALNIS
- amyloid nucleation score: -0.016 ± 0.86

Substance: CPTASHNIALLTYDQTRTQY
- amyloid nucleation score: inactive

Substance: CPVKHGGLHYSNQSYHSSGG
- amyloid nucleation score: inactive

Substance: CPYSFEAAEYFRYGRVGYFT
- amyloid nucleation score: inactive

Substance: CQCMSFIRTNSYKDFT
- amyloid nucleation score: inactive

Substance: CQLAV
- amyloid nucleation score: inactive

Substance: CQLGSSLGDDTEGSVAIPAV
- amyloid nucleation score: inactive

Substance: CQRGTVADAPYLQRRLGLLY
- amyloid nucleation score: inactive

Substance: CQSSDFTEFVRKVKRPPQAC
- amyloid nucleation score: inactive

Substance: CRACGRWCNSSYIYIY
- amyloid nucleation score: inactive

Substance: CRCFLPWGWLV
- amyloid nucleation score: inactive

Substance: CRDKANVLAAVRRR
- amyloid nucleation score: inactive

Substance: CRHINFMSIIFSFGDSSYRF
- amyloid nucleation score: 2.2 ± 0.08

Substance: CRHPTGKACELCELACFN
- amyloid nucleation score: inactive

Substance: CRQSVCFGAVC
- amyloid nucleation score: inactive

Substance: CRTQL
- amyloid nucleation score: inactive

Substance: CRVFRNNDYSKVSFWLVSVF
- amyloid nucleation score: inactive

Substance: CRVLDFSFSYFGMIFKLGTI
- amyloid nucleation score: inactive

Substance: CRVWEDDFLSNRSGLVRHLT
- amyloid nucleation score: inactive

Substance: CRYDKSSLDY
- amyloid nucleation score: inactive

Substance: CSAIFCVVRGFRRVK
- amyloid nucleation score: inactive

Substance: CSAWGLRKF
- amyloid nucleation score: 0.673 ± 0.2

Substance: CSGAIHYPYRLMRERNFTGR
- amyloid nucleation score: inactive

Substance: CSGLSDLSVTLNCYVNCIFL
- amyloid nucleation score: 2.48 ± 0.077

Substance: CSGTSSFRDLTCGCRHCFVG
- amyloid nucleation score: 1.3 ± 0.099

Substance: CSNGFLFTVRVDTGFPTRI
- amyloid nucleation score: inactive

Substance: CSPRTWCFGYNLFDM
- amyloid nucleation score: 2.5 ± 0.074

Substance: CSRFIREADTWRNRDYWWVF
- amyloid nucleation score: -0.349 ± 1.2

Substance: CSRPVVLIKGLLWAFRRWAY
- amyloid nucleation score: inactive

Substance: CSVQVGITSCSNGGYSNVYA
- amyloid nucleation score: inactive

Substance: CSYWTGYCCQIVGLKSFGLV
- amyloid nucleation score: 2.4 ± 0.083

Substance: CTGCTFRYEKKDYNLGCLCK
- amyloid nucleation score: inactive

Substance: CTGLECIGTAYRQGGDRVLW
- amyloid nucleation score: inactive

Substance: CTPFTLECW
- amyloid nucleation score: -0.193 ± 1.1

Substance: CTQGMVYIS
- amyloid nucleation score: inactive

Substance: CVFCVNRTLLIVWIMVRY
- amyloid nucleation score: inactive

Substance: CVFIFLKSCKYKVVKGINGV
- amyloid nucleation score: inactive

Substance: CVHNLN
- amyloid nucleation score: inactive

Substance: CVIITFESRILDELICDTVR
- amyloid nucleation score: inactive

Substance: CVLCYRWSHMVLTPGMTGRD
- amyloid nucleation score: inactive

Substance: CVMAMPSNIEV
- amyloid nucleation score: inactive

Substance: CVMNRN
- amyloid nucleation score: inactive

Substance: CVPCRQHTYSWDFVRVHLTV
- amyloid nucleation score: inactive

Substance: CVRTGWIIMDSNKLD
- amyloid nucleation score: inactive

Substance: CVRVSPRSDYNQMMVRMGQW
- amyloid nucleation score: inactive

Substance: CVSFNLVSWVFNYCS
- amyloid nucleation score: 2.55 ± 0.056

Substance: CVVYLWWLVSASMLCSNWFG
- amyloid nucleation score: inactive

Substance: CVWAVGVFFGFMIQRQDEER
- amyloid nucleation score: inactive

Substance: CVWLVVTSDFLFRQLL
- amyloid nucleation score: 1.73 ± 0.11

Substance: CVWML
- amyloid nucleation score: inactive

Substance: CVYYSRKG
- amyloid nucleation score: 1.95 ± 0.073

Substance: CWGST
- amyloid nucleation score: inactive

Substance: CWLYFLS
- amyloid nucleation score: inactive

Substance: CWNLISWSKEYA
- amyloid nucleation score: inactive

Substance: CWYLVLSRLLCKNSRLHSNR
- amyloid nucleation score: inactive

Substance: CYCPHPNGESFCFSVSWDTN
- amyloid nucleation score: inactive

Substance: CYIMTYKSLNTF
- amyloid nucleation score: inactive

Substance: CYLMYLSEILAYHVATWQAT
- amyloid nucleation score: inactive

Substance: CYNGTLGCGYRVLIRVSGSW
- amyloid nucleation score: inactive

Substance: CYNWHMFTEYCCSSSQARSM
- amyloid nucleation score: 0.195 ± 0.57

Substance: CYPFLWYCPNVCTVVSFDK
- amyloid nucleation score: 2.46 ± 0.062

Substance: CYTIRLWARLNLCRGIKS
- amyloid nucleation score: -0.439 ± 1.1

Substance: CYWIASRLFTKLSNYLSISG
- amyloid nucleation score: inactive

Substance: CYYRCDCLCMTWWGHRVIVV
- amyloid nucleation score: inactive

Substance: DAGLRLLYSSLTGRL
- amyloid nucleation score: inactive

Substance: DAIPARVYYGCQFILCRNDL
- amyloid nucleation score: 2.85 ± 0.084

Substance: DALAVSINCSLFRCCSM
- amyloid nucleation score: 3.3 ± 0.055

Substance: DAYGLYYTSYYPGT
- amyloid nucleation score: inactive

Substance: DCDQVPI
- amyloid nucleation score: inactive

Substance: DCFNNWWVTHYQQINFPTVA
- amyloid nucleation score: inactive

Substance: DCILGGSMMGRNTSMSAHDN
- amyloid nucleation score: inactive

Substance: DCKMRIEICDMGLCTEHRKC
- amyloid nucleation score: inactive

Substance: DCLASGMISFRVTMSNRYTI
- amyloid nucleation score: 0.241 ± 0.59

Substance: DDICIEKARDVVSMSPRSFR
- amyloid nucleation score: inactive

Substance: DDMTYGSVCNKSGRTPLLPS
- amyloid nucleation score: inactive

Substance: DDSMHDGLRVTRRVCKRGSF
- amyloid nucleation score: inactive

Substance: DEEQF
- amyloid nucleation score: -0.143 ± 0.34

Substance: DEFVKYQP
- amyloid nucleation score: inactive

Substance: DEVVWY
- amyloid nucleation score: inactive

Substance: DFILVSLLREDTNVGTACRV
- amyloid nucleation score: inactive

Substance: DFRLPNSPYAHCYLMHRLII
- amyloid nucleation score: inactive

Substance: DFRSLWTRLSSHRSAFYLLS
- amyloid nucleation score: inactive

Substance: DFSMSVNSA
- amyloid nucleation score: inactive

Substance: DFTDYMPIMYTLHRVVIQMY
- amyloid nucleation score: inactive

Substance: DFTYEL
- amyloid nucleation score: inactive

Substance: DFWKL
- amyloid nucleation score: inactive

Substance: DGCSRVMFNASGAMRRKVAN
- amyloid nucleation score: inactive

Substance: DGEGN
- amyloid nucleation score: inactive

Substance: DGKGPMVYSGMCCRTFRGLV
- amyloid nucleation score: inactive

Substance: DGNKNYDVKFIRLVTNI
- amyloid nucleation score: inactive

Substance: DHPYQRLIEWWLLCIYGSMY
- amyloid nucleation score: inactive

Substance: DIFVDN
- amyloid nucleation score: inactive

Substance: DIGMDGYRLLRRSQQRYFMN
- amyloid nucleation score: inactive

Substance: DILTDQS
- amyloid nucleation score: inactive

Substance: DISQGLRRNSSGYLVQRGYA
- amyloid nucleation score: inactive

Substance: DIVLFLG
- amyloid nucleation score: inactive

Substance: DIVVGAQRNELFS
- amyloid nucleation score: inactive

Substance: DIYFCYNIDFLYRVTLRQLR
- amyloid nucleation score: inactive

Substance: DKCRVCISFC
- amyloid nucleation score: 1.14 ± 0.13

Substance: DKNSWLYSASEYIWFFNTES
- amyloid nucleation score: inactive

Substance: DKSDQSSRRFSGTRAYFSTM
- amyloid nucleation score: inactive

Substance: DKSSSFLVRGLLLHTSRATQ
- amyloid nucleation score: inactive

Substance: DKVTHQCSISMSWAWRVHVV
- amyloid nucleation score: inactive

Substance: DLAWPRMPTIQARVEQYCLI
- amyloid nucleation score: inactive

Substance: DLDECKFPINELSFHSSMGM
- amyloid nucleation score: 1.83 ± 0.091

Substance: DLLPLVTKYFSIGLH
- amyloid nucleation score: inactive

Substance: DLRVPLNTFRNYHVSRELVR
- amyloid nucleation score: inactive

Substance: DLSPRYL
- amyloid nucleation score: inactive

Substance: DLSRDMTNVSCRKSGLWGSG
- amyloid nucleation score: inactive

Substance: DLSVWRALYNGLLQRASH
- amyloid nucleation score: inactive

Substance: DLVNVYVLPLVS
- amyloid nucleation score: inactive

Substance: DLVRITMIVYYVAASHMVAS
- amyloid nucleation score: inactive

Substance: DMACMVFGWE
- amyloid nucleation score: inactive

Substance: DMATVIVSKLFTVVVWYLFW
- amyloid nucleation score: inactive

Substance: DMCNYAFDGLCIYNYVNVVG
- amyloid nucleation score: inactive

Substance: DMFVECRLISFNFTFIRVLI
- amyloid nucleation score: inactive

Substance: DMGTYVSCRRIFKNGRYSGC
- amyloid nucleation score: inactive

Substance: DMLHLWYLSVG
- amyloid nucleation score: inactive

Substance: DMRVFANMWLVEIPVPS
- amyloid nucleation score: inactive
